From the Human Domainome abundance scans (Beltran et al. 2025)

B1: Poly(rC)-binding protein 1, residues 278 to 350; numbered along this chain, Q15365 (parent)
chain: TQTTHELTIPNNLIGCIIGRQGANINEIRQMSGAQIKIANPVEGSSGRQVTITGSAASISLAQYLINARLSSE

Variants of: B1
Test: abundance fitness (aPCA) (normalised: wild type 0, dead -1); higher = more abundant; growth selection in yeast, the domain comes from the species named
Conditions: Homo sapiens

Abundance fitness of substitutions, site by site:
I25: D -0.908; T -0.367; L -0.072; R -0.803; Q -0.564; K -0.873; F -0.539; M -0.169; P -0.84; G -0.58; A -0.565; S -0.674; V -0.308; N -0.931; W -0.622; H 0.296; C -1.01
L13: Q 0.14; M 0.05; A -0.069; K 0.062; S -0.041; I -0.076; W -0.265; P -0.959; C -0.21; R -0.082; H -0.051; E -0.06; N -0.228; T -0.181; F -0.107; D -0.012; G -0.477; Y -0.07; V -0.404
G15: E -0.062; S -0.035; Y -0.046; L -0.465; C -0.353; W -0.14; F -0.438; K -0.083; V -0.526; A -0.092; M 0; I -0.751; T -0.03; R -0.136; H -0.072; N 0.016; Q -0.162; D 0.002
I14: A -0.228; V -0.116; C -0.252; M -0.118; K -0.855; E -0.769; R -0.573; S -0.367; W -0.689; L -0.115; P -0.647; N -0.762; T -0.17; G -0.948; D -0.876; H -0.485; Q -0.73; F -0.378
N26: K 0.104; R 0.032; H -0.193; Q 0.025; W -0.34; D -0.08; I -0.119; T -0.022; L -0.291; S -0.003; A -0.002; V -0.327; E -0.035; M -0.094; P -0.682; G -0.27; F -0.354; C -0.196
N24: C -0.196; D -0.003; H -0.049; G -0.04; A 0.007; V -0.048; K 0.076; S -0.033; Q 0.002; W -0.161; L -0.134; M 0.038; Y 0.01; E -0.01; F -0.13; P -0.088; R 0.066; I -0.06
C16: H -0.141; I 0.266; R 0.138; W -0.092; G -0.116; S -0.042; E -0.038; Q 0.01; V -0.083; D -0.063; Y -0.209; M 0.092; F -0.031; P -0.045; K 0.093; L -0.107; A 0.059; T 0.131
E27: P -0.704; D -0.099; H -0.09; I -0.164; W -0.136; A -0.18; Q 0.028; C -0.169; M 0.014; R 0.005; L -0.225; K 0.021; S -0.035; V -0.26; G -0.244; F -0.564; T -0.102; Y -0.157; N 0.08
N12: M -0.316; G -0.282; D -0.272; R 0.027; V -0.306; P -0.186; A -0.148; C -0.267; S -0.022; T -0.053; E -0.202; H -0.009; F -0.459; L -0.35; K -0.004
I28: E -0.895; C -0.633; P -0.939; R -0.825; S -1.04; D -0.524; Y -0.731; Q -0.683; L -0.143; M -0.281; W -0.408; V -0.257; F -0.65; H -0.956; G -0.78; A -0.735
Q21: M -0.322; C -0.281; R -0.012; Y -0.217; P -0.568; W -0.339; K 0.081; G -0.106; H -0.032; N 0.052; E -0.09; I -0.844; S -0.09; D -0.134; T -0.207; L -0.437; F -0.236
R20: P 0.155; V -0.031; G -0.173; E 0.012; T -0.167; N 0.27; S -0.082; Y 0.019; F 0.1; C -0.04; D 0.042; Q -0.008; K 0.048; I -0.074; W -0.188; A 0.028; L -0.035; H 0.139; M -0.138
G19: W -0.831; E -0.431; R -0.609; K -0.194; T -0.732; D -0.321; I -0.583; Q -0.532; M -0.774; N -0.655; S -0.473; P -0.423; L -0.815; V -0.991; A -0.481; H -0.833
I18: W -0.232; H -0.767; R -0.636; T -0.218; G -0.565; Q -0.756; L -0.355; F -0.321; V -0.367; D -0.39; E -0.118; A -0.316; N -0.156; K -0.435; S -0.433; P -0.808; C -0.616
Q30: D -0.502; C -0.341; A 0.001
R29: C -0.205; Q 0.067; E 0.062; G -0.142; A -0.059; S -0.046; K -0.18; D -0.631; W -1.06; Y -0.55; T -0.085; V -0.129; L -0.386; I -0.081; N 0.037; H -0.225; P -0.817; M -0.022; F -0.271
A23: Y -0.296; H 0.102; K 0.067; C 0.018; V -0.09; R 0.102; M -0.128; Q 0.05; L -0.22; E 0.056; I -0.115; N -0.167; F 0.044; W -0.419; D -0.079; P -0.401; G -0.069
G22: E 0.137; T -0.373; K -0.329; I -1.04; C -0.113; Q -0.228; D -0.249; S 0.01; M -0.205; P -0.583; N 0.089; V -0.703; Y -0.383; L -0.408; H -0.122; R -0.271
N11: H -0.025; I -0.21; R -0.264; V -0.352; D 0.186; F -0.061; L -0.473; C -0.165; P -0.347; T -0.169; E -0.045; K -0.171; Y -0.549; S -0.09; M -0.28; W -0.425
I17: F -0.177; D -0.506; G -0.585; H -0.831; L -0.022; V -0.106; A -0.715; T -0.6; S -0.733; Q -0.878; Y -0.665; C -0.928; K -1.09; W -0.663; P -1.17; M -0.562; R -0.98; E -0.782
